The record followed here is patent publication US20050129678A1 (published 2005).

First the molecules themselves.
B1: GST-Ykl166C (enzyme, UniProt P05986 1-398, looked up)
chain: MYVDPMNNNEIRKLSITAKTETTPDNVGQDIPVNAHSVHEECSSNTPVEINGRNSGKLKEEASAGICLVKKPMLQYRDTSGKYSLSDFQILRTLGTGSFGRVHLIRSNHNGRFYALKTLKKHTIVKLKQVEHTNDERRMLSIVSHPFIIRMWGTFQDSQQVFMVMDYIEGGELFSLLRKSQRFPNPVAKFYAAEVCLALEYLHSKDIIYRDLKPENILLDKNGHIKITDFGFAKYVPDVTYTLCGTPDYIAPEVVSTKPYNKSVDWWSFGVLIYEMLAGYTPFYNSNTMKTYENILNAELKFPPFFHPDAQDLLKKLITRDLSERLGNLQNGSEDVKNHPWFNEVIWEKLLARYIETPYEPPIQQGQGDTSQFDRYPEEEFNYGIQGEDPYMDLMKEF
notes: also called Ykl166C-Tpk3; Tpk3; not shown: glutathione S-transferase (GST) fusion tag
B4: endogenous Tpk1 (enzyme, yeast, UniProt P06244 2-397, looked up)
chain: STEEQNGGGQKSLDDRQGEESQKGETSERETTATESGNESKSVEKEGGETQEKPKQPHVTYYNEEQYKQFIAQARVTSGKYSLQDFQILRTLGTGSFGRVHLIRSRHNGRYYAMKVLKKEIVVRLKQVEHTNDERLMLSIVTHPFIIRMWGTFQDAQQIFMIMDYIEGGELFSLLRKSQRFPNPVAKFYAAEVCLALEYLHSKDIIYRDLKPENILLDKNGHIKITDFGFAKYVPDVTYTLCGTPDYIAPEVVSTKPYNKSIDWWSFGILIYEMLAGYTPFYDSNTMKTYEKILNAELRFPPFFNEDVKDLLSRLITRDLSQRLGNLQNGTEDVKNHPWFKEVVWEKLLSRNIETPYEPPIQQGQGDTSQFDKYPEEDINYGVQGEDPYADLFRDF
notes: Untagged yeast Tpk1 found in a GST fusion preparation; also called Tpk1wt; a protein with the same molecular weight as Tpk1

Assay [1] addresses T1, GST-Yil033C (yeast, UniProt P07278 1-416).
T1 construct: also called Yil033C-Bcy1; Yil033C-Bcyl; not shown: glutathione S-transferase (GST) fusion tag
T1 sequence (looked up): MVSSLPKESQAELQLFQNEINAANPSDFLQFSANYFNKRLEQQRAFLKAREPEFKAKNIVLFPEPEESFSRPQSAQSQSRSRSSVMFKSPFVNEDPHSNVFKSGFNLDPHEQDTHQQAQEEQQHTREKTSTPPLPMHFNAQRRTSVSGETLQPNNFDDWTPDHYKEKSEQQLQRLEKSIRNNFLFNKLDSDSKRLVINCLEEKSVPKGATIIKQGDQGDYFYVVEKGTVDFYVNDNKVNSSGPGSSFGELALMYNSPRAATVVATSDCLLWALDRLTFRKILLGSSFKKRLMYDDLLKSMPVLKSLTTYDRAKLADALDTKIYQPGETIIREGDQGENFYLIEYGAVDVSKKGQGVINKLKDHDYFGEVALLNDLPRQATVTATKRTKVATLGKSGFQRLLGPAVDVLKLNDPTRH
Put plainly: microarray-based protein-protein interaction.

Assay [2] has as its target B4. Put plainly: co-purification with the GST fusion, Western blot with anti-Tpk1. The text has this: (§1) Tpk1 is a protein kinase involved in pseudohyphal growth and ras signal transduction (Robertson et al., 1998, Pro Natl Acad Sci USA 95, 13783-7; Tokiwa et al., 1994, Nature 371, 342-5). […] Three of these proteins, Ykl166C-Tpk3 (a protein kinase), Ypl203W-Tpk2 (a protein kinase) and Yil033C-Bcyl (a cAMP-dependent protein kinase inhibitor) have been shown by mass spectroscopy to be co-immunoprecipitated with Tpk1 (Ho et al., 2002, Nature 415, 180-3).
(§2) SDS-PAGE and Western analyses of Protein Samples. Purified proteins were mixed with sample buffer, heated and run in 5%/10% SDS-PAGE gels, transferred to nitrocellulose and blocked overnight with 1% BSA in TBST. Subsequently, blots were probed with primary antibodies for 2 hours, washed three times with TBST, probed with secondary antibodies conjugated to HRP for 1 hour and washed three times with TBST. Femto-reagent (Pierce Co., Milwaukee) was added and images acquired with an Alpha Innotech Imaging station.

In assay [3] the target is B1. Put plainly: microarray-based protein interaction experiment.
In assay [4] the target is B1. The assay is described as follows: co-purification with the GST fusion, Western blot with anti-Tpk1.
Text: as §1, §2
A general note: In western blotting, separated proteins are transferred to a membrane and probed.

In the case of B1, the binding result in assay [1] is listed as “binds”.

B2: GST-Ypl203W (enzyme, UniProt P06245 1-380, looked up)
chain: MEFVAERAQPVGQTIQQQNVNTYGQGVLQPHHDLQQRQQQQQQRQHQQLLTSQLPQKSLVSKGKYTLHDFQIMRTLGTGSFGRVHLVRSVHNGRYYAIKVLKKQQVVKMKQVEHTNDERRMLKLVEHPFLIRMWGTFQDARNIFMVMDYIEGGELFSLLRKSQRFPNPVAKFYAAEVILALEYLHAHNIIYRDLKPENILLDRNGHIKITDFGFAKEVQTVTWTLCGTPDYIAPEVITTKPYNKSVDWWSLGVLIYEMLAGYTPFYDTTPMKTYEKILQGKVVYPPYFHPDVVDLLSKLITADLTRRIGNLQSGSRDIKAHPWFSEVVWERLLAKDIETPYEPPITSGIGDTSLFDQYPEEQLDYGIQGDDPYAEYFQDF
notes: also called Ypl203W-Tpk2; Yp1203W; not shown: glutathione S-transferase (GST) fusion tag
As to B2, the values for the binding result in assay [1] and in assay [2] were “binds” and “no binding”, respectively.

B3: GST-Yjl164C-Tpk1 (enzyme, UniProt P06244 1-397, looked up)
chain: MSTEEQNGGGQKSLDDRQGEESQKGETSERETTATESGNESKSVEKEGGETQEKPKQPHVTYYNEEQYKQFIAQARVTSGKYSLQDFQILRTLGTGSFGRVHLIRSRHNGRYYAMKVLKKEIVVRLKQVEHTNDERLMLSIVTHPFIIRMWGTFQDAQQIFMIMDYIEGGELFSLLRKSQRFPNPVAKFYAAEVCLALEYLHSKDIIYRDLKPENILLDKNGHIKITDFGFAKYVPDVTYTLCGTPDYIAPEVVSTKPYNKSIDWWSFGILIYEMLAGYTPFYDSNTMKTYEKILNAELRFPPFFNEDVKDLLSRLITRDLSQRLGNLQNGTEDVKNHPWFKEVVWEKLLSRNIETPYEPPIQQGQGDTSQFDKYPEEDINYGVQGEDPYADLFRDF
notes: not shown: glutathione S-transferase (GST) fusion tag
As to B3, the binding result is given as “binds” in assay [1] and “no binding” in assay [3].
B4: the binding result in assay [4] is “no binding”.
